Measured values as given in doi:10.1101/2022.07.21.500954 (bioRxiv, 2022).

Molecular target: the molecule itself
Assay: SEC-MALS

B1: cerato-platanin-like protein 1 (Cpl1) from Ustilago maydis, tag-free recombinant protein (natural protein, UniProt A0A0D1E4Q7 22-240, looked up)
chain: AVDITFTSGKFNRRDDSTVVKQKNPEFGMNLANQYIIRKGAGLPPAKDVKETYPECKWRHYAGSFGWLDDYNVQCYLSPSYKFHAHSIAKAFKAEPSTKAGACFDTANTDQFPEGVPKYSIGVPYLYMNNLYDRRCKVRAMVKIPKTDEHEEKWVQAWVIDHNLGNWDKDGKENDAYPKDGVLIDTNMYEQFFDKNKKVPDYSKTVPVEWFFLDINTVG
- stoichiometry N: 2
